Experimental findings from paper PMC9714371, “Haemophilus influenzae Protein D antibody suppression in a multi‐component vaccine formulation” (FEBS Open Bio, 2022) are described below.

Values joined by “and” are separate entries in the source; they are usually repeats but may differ in a detail not shown here. Identical values can stand only once.

This data set deals with the molecule itself. The data set is described as follows: native MS; nano-electrospray native MS with ion mobility (Waters Synapt G2); His-tagged proteins in 200 mM ammonium acetate pH 6.8, 5 μM; PD alone, OMP26 alone, 1:1 mixture.

B1: His‐tagged Protein D (non‐lipidated, N‐terminal signal sequence removed) (natural protein)
chain: CSSHSSNMANTQMKSDKIIIAHRGASGYLPEHTLESKALAFAQHSDYLEQDLAMTKDGRLVVIHDHFLDGLTDVAKKFPYRHRKDGRYYVIDFTLKEIQSLEMTENFETKDGKQAQVYPNRFPLWKSHFRIHTFEDEIEFIQGLEKSTGKKVGIYPEIKAPWFHHQNGKDIATETLKVLKKYGYDKKTDMVYLQTFDFNELKRIKTELLPQMGMDLKLVQLIAYTDWKETQEKDPKGYWVNYNYDWMFKPGAMAEVVKYADGVGPGWYMLVNKEESKPDNIVYTPLVKELAQYNVEVHPYTVRKDALPEFFTDVNQMYDALLNKSGATGVFTDFPDTGVEFLKGIK
notes: Gene bought from GenScript, in pET21a; also called PD; His‐tagged PD; source: E. coli BL‐21*, IPTG induced; not shown: His6, N-terminal, kept
Take B1: the “stoichiometry N” value is 2 and 4.

B2: His‐tagged outer membrane protein 26 (OMP26) (natural protein)
chain: EEKIAFINAGYIFQHHPDRQAVADKLDAEFKPVAEKLAASKKEVDDKIAAARKKVEAKVAALEKDAPRLRQADIQKRQQEINKLGAAEDAELQKLMQEQDKKVQEFQAQNEKRQAEERGKLLDSIQTATNNLAKAKGYTYVLDANSIVFAVEGKDITEEVLKSIPASEKAQEKK
notes: OMP26, 26-kDa outer membrane protein of Haemophilus influenzae, homolog of E. coli Skp; Gene bought from GenScript; Predominantly trimers by native MS and SEC, with hexamers in low abundance; also called His‐tagged OMP26; source: E. coli BL‐21*, IPTG induced; not shown: His6, N-terminal, kept
Take B2: the “stoichiometry N” value is 3 and 6.
